T1: IL-2αβγ triple receptor (Homo sapiens, UniProt P01589+P14784+P31785)
T1 construct: Uniprot P01589 1Met-551Ile constructed into plasmid pcDNA3.1/zeo; Uniprot P14784 1Met-551Val constructed into plasmid pcDNA3.1(+); Uniprot P31785 1Met-551Thr was constructed into plasmid pcDNA3.1/zeo; expressed in transfected cells; host or cells: 293EC18 cells, transient co-transfection with pCMV/JAK3 and PGL4.52/STAT5RE
T1 sequence (P01589 22-272): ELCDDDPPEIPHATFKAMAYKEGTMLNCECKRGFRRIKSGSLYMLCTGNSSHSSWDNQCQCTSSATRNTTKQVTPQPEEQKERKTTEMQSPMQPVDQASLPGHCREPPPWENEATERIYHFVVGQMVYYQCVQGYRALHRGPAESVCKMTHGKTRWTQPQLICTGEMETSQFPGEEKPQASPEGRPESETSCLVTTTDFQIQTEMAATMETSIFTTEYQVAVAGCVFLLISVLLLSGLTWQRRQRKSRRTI
T1 sequence (P14784 27-551): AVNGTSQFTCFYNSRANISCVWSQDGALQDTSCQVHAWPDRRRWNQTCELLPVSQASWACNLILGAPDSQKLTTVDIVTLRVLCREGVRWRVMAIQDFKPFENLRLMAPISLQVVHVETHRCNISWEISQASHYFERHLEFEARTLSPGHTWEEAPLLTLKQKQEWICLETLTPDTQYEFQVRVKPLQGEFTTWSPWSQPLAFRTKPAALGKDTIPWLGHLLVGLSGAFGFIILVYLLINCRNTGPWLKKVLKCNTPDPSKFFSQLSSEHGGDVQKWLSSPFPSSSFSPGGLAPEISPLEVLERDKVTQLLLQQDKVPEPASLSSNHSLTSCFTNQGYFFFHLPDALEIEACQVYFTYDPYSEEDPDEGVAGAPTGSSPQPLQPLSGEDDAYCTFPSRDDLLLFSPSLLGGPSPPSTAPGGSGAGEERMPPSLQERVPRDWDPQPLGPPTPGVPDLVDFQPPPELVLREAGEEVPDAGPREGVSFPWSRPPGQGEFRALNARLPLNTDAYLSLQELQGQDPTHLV
T1 sequence (P31785 23-369): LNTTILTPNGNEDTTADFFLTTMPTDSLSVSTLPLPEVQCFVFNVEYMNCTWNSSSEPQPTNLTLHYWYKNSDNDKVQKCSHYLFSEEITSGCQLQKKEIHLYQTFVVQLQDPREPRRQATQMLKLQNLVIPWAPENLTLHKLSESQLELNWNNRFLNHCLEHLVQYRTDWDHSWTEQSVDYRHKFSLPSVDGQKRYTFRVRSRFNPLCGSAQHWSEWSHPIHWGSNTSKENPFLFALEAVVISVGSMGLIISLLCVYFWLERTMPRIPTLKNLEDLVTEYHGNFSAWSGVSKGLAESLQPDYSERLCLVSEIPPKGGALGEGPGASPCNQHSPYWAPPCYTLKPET

T2: IL-2Rαβγ triple receptor (UniProt P01589 22-272; P14784 27-551; P31785 23-369)
T2 sequence (looked up) 1: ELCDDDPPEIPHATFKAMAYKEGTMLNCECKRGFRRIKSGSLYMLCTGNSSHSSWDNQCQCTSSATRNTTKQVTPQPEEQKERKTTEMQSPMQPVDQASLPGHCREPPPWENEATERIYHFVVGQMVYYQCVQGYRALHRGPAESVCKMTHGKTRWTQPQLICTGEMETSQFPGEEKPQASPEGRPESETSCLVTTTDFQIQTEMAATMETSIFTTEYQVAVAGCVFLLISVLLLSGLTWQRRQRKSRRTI
T2 sequence (looked up) 2: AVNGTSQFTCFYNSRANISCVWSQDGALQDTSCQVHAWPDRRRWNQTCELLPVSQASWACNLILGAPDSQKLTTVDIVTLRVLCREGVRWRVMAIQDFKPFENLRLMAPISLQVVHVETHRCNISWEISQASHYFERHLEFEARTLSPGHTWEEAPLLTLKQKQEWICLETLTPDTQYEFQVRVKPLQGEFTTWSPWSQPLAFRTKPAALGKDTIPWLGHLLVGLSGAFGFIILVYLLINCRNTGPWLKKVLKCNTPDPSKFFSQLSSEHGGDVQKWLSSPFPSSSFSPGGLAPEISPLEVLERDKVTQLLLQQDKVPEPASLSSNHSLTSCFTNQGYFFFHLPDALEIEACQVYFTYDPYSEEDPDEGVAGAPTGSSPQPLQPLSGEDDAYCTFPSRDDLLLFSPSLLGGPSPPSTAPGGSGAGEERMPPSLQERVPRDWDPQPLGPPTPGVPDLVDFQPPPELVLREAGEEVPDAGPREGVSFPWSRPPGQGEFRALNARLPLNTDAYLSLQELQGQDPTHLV
T2 sequence (looked up) 3: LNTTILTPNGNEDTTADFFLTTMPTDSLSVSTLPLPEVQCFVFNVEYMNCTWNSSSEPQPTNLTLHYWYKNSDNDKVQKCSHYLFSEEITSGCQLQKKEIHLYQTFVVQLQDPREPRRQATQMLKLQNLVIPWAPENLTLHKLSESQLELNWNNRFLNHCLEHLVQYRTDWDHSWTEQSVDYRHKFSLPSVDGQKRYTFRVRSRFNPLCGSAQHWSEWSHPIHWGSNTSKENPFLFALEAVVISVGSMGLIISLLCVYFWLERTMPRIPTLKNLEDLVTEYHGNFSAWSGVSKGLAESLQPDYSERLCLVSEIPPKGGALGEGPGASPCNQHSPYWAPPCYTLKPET

T3: IL-2βγ dual receptor (Homo sapiens, UniProt P14784+P31785)
T3 construct: Uniprot P14784 1Met-551Val was constructed into plasmid pcDNA3.1(+); Uniprot P31785 1Met-551Thr was constructed into plasmid pcDNA3.1/zeo; expressed in transfected cells; host or cells: 293EC18 cells, transient co-transfection with pCMV/JAK3 and PGL4.52/STAT5RE
T3 sequence (P14784 27-551): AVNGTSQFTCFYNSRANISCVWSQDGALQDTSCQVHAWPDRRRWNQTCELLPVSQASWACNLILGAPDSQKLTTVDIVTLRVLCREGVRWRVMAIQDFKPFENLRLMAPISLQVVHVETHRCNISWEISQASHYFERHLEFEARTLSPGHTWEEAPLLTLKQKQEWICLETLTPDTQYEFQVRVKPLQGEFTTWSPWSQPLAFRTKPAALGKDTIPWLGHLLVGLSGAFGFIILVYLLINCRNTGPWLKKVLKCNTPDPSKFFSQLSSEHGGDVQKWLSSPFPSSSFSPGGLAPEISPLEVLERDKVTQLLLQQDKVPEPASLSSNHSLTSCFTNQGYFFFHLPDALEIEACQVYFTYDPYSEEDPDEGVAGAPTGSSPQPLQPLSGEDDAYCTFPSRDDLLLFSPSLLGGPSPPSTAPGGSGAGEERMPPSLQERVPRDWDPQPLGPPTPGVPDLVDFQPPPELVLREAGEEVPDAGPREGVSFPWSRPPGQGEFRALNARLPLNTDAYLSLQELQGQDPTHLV
T3 sequence (P31785 23-369): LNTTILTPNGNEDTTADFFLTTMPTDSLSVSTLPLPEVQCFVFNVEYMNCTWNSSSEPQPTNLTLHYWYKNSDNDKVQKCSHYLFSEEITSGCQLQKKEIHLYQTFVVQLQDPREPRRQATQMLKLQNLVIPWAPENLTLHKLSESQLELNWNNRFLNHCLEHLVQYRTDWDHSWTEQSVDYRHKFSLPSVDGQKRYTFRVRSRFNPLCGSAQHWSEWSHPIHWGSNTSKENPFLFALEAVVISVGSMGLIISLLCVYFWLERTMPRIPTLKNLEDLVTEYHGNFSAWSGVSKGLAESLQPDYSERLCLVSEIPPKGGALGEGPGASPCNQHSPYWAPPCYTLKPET


Legend:
[1] = biological target: T1, IL-2αβγ triple receptor; experiment: STAT5 reporter gene assay, activation of IL-2αβγ triple receptor in 293EC18/αβγ/JAK3/STAT5 cells; type: cell-based; details: Example 3, Table 2 and Figure 3
Procedure: (§1) Since the binding of IL-2 to the β and γ subunits of its receptor induces STAT5 phosphorylation, which subsequently leads to dimerization and translocation into the nucleus to promote target gene transcription, this example evaluates the ability of the mutant IL-2 polypeptides to induce signaling through the IL-2 receptor by measuring STAT5 phosphorylation.
Adherent 293EC18 cells were cultured to about 90% confluence using conventional methods. After trypsin digestion, the cells were resuspended in cell culture medium to 4×10^5 cells/ml and 50 µl/well were added to two 96-well cell culture plates. After incubation at 37°C for 48 h, the supernatant was aspirated and fresh culture medium was added. […]
Each IL2 mutant was diluted 4-fold in a gradient manner using PBS buffer, with a total of 11 dilutions and a starting concentration of 65.2 nM. […] Bio-Lite Luciferase Assay System reagents that have been mixed and equilibrated to room temperature were added to the cell culture plates to be tested at 100 µl/well, placed on a microplate shaker at 450 rpm to mix for 2 minutes, then allowed to stand at room temperature for 3 minutes, and the chemiluminescence value was detected with an enzyme plate reader.
(§2) The logarithm of the final concentration of each IL-2 mutant sample was used as the X-axis, and the chemiluminescence detection results were used as the Y-axis for plotting. Data were analyzed using the four-parameter logistic regression model in GraphPad Prism 9. Table 2 EC50 values for the activation of the IL-2αβγ triple receptor by PEG-IL-2 mutants as determined by a reporter gene assay.
According to the method of Example 3, each polyethylene glycol-modified mutant obtained in this example was assessed for the binding preference to the IL2 receptors by a reporter assay. Table 4 EC50 values for the activation of the IL-2αβγ triple receptor by PEG-IL-2 mutants as determined by a reporter gene assay. […]

[2] = biological target: T2, IL-2Rαβγ triple receptor; experiment: cell-based or functional assay
[3] = biological target: T2, IL-2Rαβγ triple receptor; experiment: cell-based or functional assay; remark: listed apart in the source
[4] = biological target: T3, IL-2βγ dual receptor; experiment: STAT5 reporter gene assay, activation of IL-2βγ dual receptor in 293EC18/βγ/JAK3/STAT5 cells; type: cell-based
Procedure: as §1
Adherent 293EC18 cells were cultured to about 90% confluence using conventional methods. After trypsin digestion, the cells were resuspended in cell culture medium to 4×10^5 cells/ml and 50 µl/well were added to two 96-well cell culture plates. After incubation at 37°C for 48 h, the supernatant was aspirated and fresh culture medium was added. According to the manufacturer's method, four plasmids, pcDNA3.1(+)/CD122 (constructed by Nanjing Novoacine Biotechnology Co., Ltd, Uniprot P14784 1Met-551Val was constructed into plasmid pcDNA3.1(+)), pcDNA3.1/puro/CD132 (constructed by Nanjing Novoacine Biotechnology Co., Ltd, Uniprot P31785 1Met-551Thr was constructed into plasmid pcDNA3.1/zeo), pCMV/JAK3 (Sino Biological), and PGL4.52/STAT5RE (Promega) were transiently transfected into 293EC18 cells using a cationic transfection reagent (ExFect Transfection Reagent, Vazyme). The obtained cells were named 293EC18/βγ/JAK3/STAT5 cells. Alternatively, five plasmids, pcDNA3.1/zeo/CD25 (constructed by Nanjing Novoacine Biotechnology Co., Ltd, Uniprot P01589 1Met-551Ile constructed into plasmid pcDNA3.1/zeo), pcDNA3.1(+)/CD122 (constructed by Nanjing Novoacine Biotechnology Co., Ltd, Uniprot P14784 1Met-551Val constructed into plasmid pcDNA3.1(+)), pcDNA3.1/puro/CD132 (constructed by Nanjing Novoacine Biotechnology Co., Ltd, UniprotP31785 1Met-551Thr constructed into plasmid pcDNA3.1/zeo), pCMV/JAK3 (Sino Biological), and PGL4.52/STAT5RE (Promega) were transiently transferred into 293EC18 cells, and the obtained cells were named 293EC18/αβγ/JAK3/STAT5 cells. The transfected cells were incubated at 37°C and 5% CO2 for another 6 h.
Each IL2 mutant was diluted 4-fold in a gradient manner using PBS buffer, with a total of 11 dilutions and a starting concentration of 65.2 nM. In the above cell culture plates, 50 µl/well of each of the serially diluted IL2 mutant samples was added in duplicate. Then, the cell culture plate was placed in an incubator at 37°C and 5% CO2 for overnight culture. The cell culture plates were kept at room temperature for 20 ± 5 minutes to equilibrate the plates to room temperature. Bio-Lite Luciferase Assay System reagents that have been mixed and equilibrated to room temperature were added to the cell culture plates to be tested at 100 µl/well, placed on a microplate shaker at 450 rpm to mix for 2 minutes, then allowed to stand at room temperature for 3 minutes, and the chemiluminescence value was detected with an enzyme plate reader.
as §2
According to the method of Example 3, each polyethylene glycol-modified mutant obtained in this example was assessed for the binding preference to the IL2 receptors by a reporter assay. Table 4 EC50 values for the activation of the IL-2αβγ triple receptor by PEG-IL-2 mutants as determined by a reporter gene assay.
Referring to Example 3, the phosphorylation of STAT5 was used to evaluate the ability of the PEG-modified IL-2 mutants having a non-natural amino acid mutation prepared in Example 14 to induce signal transduction via the IL-2 receptor. […]

| Molecule | activation of the IL-2Rαβγ triple receptor compared with the control IL2-N88R [1] | EC50 for activation of the IL-2αβγ triple receptor (STAT5 luciferase reporter gene assay, 293EC18/αβγ/JAK3/STAT5 cells) [2] [nM] | EC50 for activation of the IL-2αβγ triple receptor (STAT5 luciferase reporter gene assay) [3] [nM] | activation effect on the IL-2Rβγ dual receptor compared with control IL-2 N88R ([4]; Figure 1, concentration of 65.2 nM) | activation effect on / affinity to IL-2Rβγ dual receptor compared with control IL-2 N88R ([4]; Figure 2, all concentrations) |
| --- | --- | --- | --- | --- | --- |
| 80k-1PEG-IL2-D84C: IL-2 (C125S) mutant D84C with one 80k PEG-maleimide conjugated to cysteine 84 | even stronger activation |  |  |  |  |
| 80K-1PEG-IL2-N88R-N77C (ligand) APTSSSTKKTQLQLEHLLLDLQMILNGINNYKNPKLTRMLTFKFYMPKKATELKHLQCLEEELKPLEEVLNLAQSKC(PEG 80 kDa)FHLRPRDLISRINVIVLELKGSETTFMCEYADETATIVEFLNRWITFSQSIISTLT |  | 0.184 | 0.246 |  |  |
| 80k-1PEG-IL2-N88R-N33C: IL-2 mutant N88R, N33C with one 80k PEG conjugated to cysteine 33 (conjugate) APTSSSTKKTQLQLEHLLLDLQMILNGINNYKC(PEG 80 kDa)PKLTRMLTFKFYMPKKATELKHLQCLEEELKPLEEVLNLAQSKNFHLRPRDLISRINVIVLELKGSETTFMCEYADETATIVEFLNRWITFSQSIISTLT | even stronger activation |  |  | lower activation effects | further reduced the affinity to IL-2Rβγ |

Reference: patent EP4631972A1, “SITE-SPECIFIC COUPLED PEGYLATED INTERLEUKIN-2 MUTANT WITH RECEPTOR AFFINITY PREFERENCE AND USE THEREOF” (priority 2022, dated 2024)
